According to PMC8612984 (Journal of immunology (Baltimore, Md. : 1950), 2021):
Numbering of substitutions follows the chain as printed. In names and notes the source's numbering stands. Several values for one entry are separate records, joined by “and”; a condition that tells them apart may be missing. Equal values may be shown once.

B1: BBK32-C R337A (residues 206–354) (domain or fragment, B. burgdorferi B31, UniProt O50835 206-354, looked up)
chain: SNRYQSYLEGVKYNVDSAIQTITKIYNTYTLFSTKLTQMYSTRLDNFAKAKAKEEAAKFTKEDLEKNFKTLLNYIQVSVKTAANFVYINDTHAKRKLENIEAEIKTLIAKIKEQSNLYEAYKAIVTSILLMADSLKEVQGIIDKNGVWY
B2: BBK32-C (C-terminal domain of B. burgdorferi BBK32), wild type (domain or fragment)
chain: SNRYQSYLEGVKYNVDSAIQTITKIYNTYTLFSTKLTQMYSTRLDNFAKAKAKEEAAKFTKEDLEKNFKTLLNYIQVSVKTAANFVYINDTHAKRKLENIEAEIKTLIAKIKEQSNLYEAYKAIVTSILLMRDSLKEVQGIID
B3: BBK32-C N251A (domain or fragment, B. burgdorferi B31, UniProt O50835 206-348, looked up)
chain: B2 chain with N46A
B4: BBK32-C T331A (domain or fragment, B. burgdorferi B31, UniProt O50835 206-348, looked up)
chain: B2 chain with T126A
B5: BBK32-C E324A (domain or fragment, B. burgdorferi B31, UniProt O50835 206-348, looked up)
chain: B2 chain with E119A
B6: BBK32-C Y323A-E324A (domain or fragment, B. burgdorferi B31, UniProt O50835 206-348, looked up)
chain: B2 chain with Y118A, E119A
B7: BBK32-C T242A (domain or fragment, B. burgdorferi B31, UniProt O50835 206-348, looked up)
chain: B2 chain with T37A
B8: BBK32-C T242A-Y245A (domain or fragment, B. burgdorferi B31, UniProt O50835 206-348, looked up)
chain: B2 chain with T37A, Y40A
B9: BBK32-C L236A-T239A (domain or fragment, B. burgdorferi B31, UniProt O50835 206-348, looked up)
chain: B2 chain with L31A, T34A
B10: BBK32-C Y245A (domain or fragment, B. burgdorferi B31, UniProt O50835 206-348, looked up)
chain: B2 chain with Y40A
B11: BBK32-C L236A (domain or fragment, B. burgdorferi B31, UniProt O50835 206-348, looked up)
chain: B2 chain with L31A
B12: BBK32-C Y323A (domain or fragment, B. burgdorferi B31, UniProt O50835 206-348, looked up)
chain: B2 chain with Y118A
B13: BBK32-C T239A (domain or fragment, B. burgdorferi B31, UniProt O50835 206-348, looked up)
chain: B2 chain with T34A
B14: BBK32-C K327A (domain or fragment, B. burgdorferi B31, UniProt O50835 206-348, looked up)
chain: B2 chain with K122A
B15: BBK32-C K327A-T331A (domain or fragment, B. burgdorferi B31, UniProt O50835 206-348, looked up)
chain: B2 chain with K122A, T126A
B16: BBK32-C R248A (domain or fragment, B. burgdorferi B31, UniProt O50835 206-348, looked up)
chain: B2 chain with R43A

Key:
[1] = target: T1, C1r-CCP2-SP, recombinant autoactivated domain truncation of human C1r (human, UniProt P00736 375-703); test: SPR
T1 sequence: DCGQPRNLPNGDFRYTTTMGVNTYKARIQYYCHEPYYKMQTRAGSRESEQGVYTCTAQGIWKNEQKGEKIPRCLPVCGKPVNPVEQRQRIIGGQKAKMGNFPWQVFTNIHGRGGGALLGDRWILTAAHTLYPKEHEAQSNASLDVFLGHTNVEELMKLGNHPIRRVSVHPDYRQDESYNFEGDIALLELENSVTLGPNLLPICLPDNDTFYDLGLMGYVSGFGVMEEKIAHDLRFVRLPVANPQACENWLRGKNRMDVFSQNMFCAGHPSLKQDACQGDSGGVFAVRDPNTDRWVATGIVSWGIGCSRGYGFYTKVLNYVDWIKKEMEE

[2] = target: T1, C1r-CCP2-SP, recombinant autoactivated …; test: SEC-MALS + other: SEC-SAXS

Row | Binder | Kd [1] | koff [1] | kon [1] | stoichiometry N [2]
1 | B1 | 780 ± 130 pM | 8.8e-05 s⁻¹ | 110000 M⁻¹ s⁻¹ | 
2 | B2 | 450 pM and 780 pM | 4.5e-05 s⁻¹ and 6.3e-05 s⁻¹ | 100000 M⁻¹ s⁻¹ and 81000 M⁻¹ s⁻¹ | 1
3 | B3 | 610 ± 210 pM | 0.00011 s⁻¹ | 180000 M⁻¹ s⁻¹ | 
4 | B4 | 730 ± 300 pM | 8.2e-05 s⁻¹ | 140000 M⁻¹ s⁻¹ | 
5 | B5 | 1600 ± 70 pM | 0.00034 s⁻¹ | 200000 M⁻¹ s⁻¹ | 
6 | B6 | 480000 ± 51000 pM | 0.046 s⁻¹ | 100000 M⁻¹ s⁻¹ | 
7 | B7 | 960 pM | 9.9e-05 s⁻¹ | 100000 M⁻¹ s⁻¹ | 
8 | B8 | 57000 ± 100 pM | 0.012 s⁻¹ | 210000 M⁻¹ s⁻¹ | 
9 | B9 | 180 pM | 4.3e-05 s⁻¹ | 240000 M⁻¹ s⁻¹ | 
10 | B10 | 1300 ± 10 pM | 0.00035 s⁻¹ | 280000 M⁻¹ s⁻¹ | 
11 | B11 | 150 pM | 3.5e-05 s⁻¹ | 230000 M⁻¹ s⁻¹ | 
12 | B12 | 870 ± 60 pM | 0.00016 s⁻¹ | 180000 M⁻¹ s⁻¹ | 
13 | B13 | 170 pM | 4.4e-05 s⁻¹ | 260000 M⁻¹ s⁻¹ | 
14 | B14 | 120000 ± 50000 pM | 0.0075 s⁻¹ | 97000 M⁻¹ s⁻¹ | 
15 | B15 | 510000 ± 200000 pM | 0.026 s⁻¹ | 37000 M⁻¹ s⁻¹ | 
16 | B16 | 5800 ± 100 pM | 0.0013 s⁻¹ | 220000 M⁻¹ s⁻¹ | 
